Reference: patent US20090136484A1

How the values were obtained:
[1] = target: T1, Biotin-… (epitope sequence from candidal Hsp90) (Candida); test: ELISA, biotinylated peptide on streptavidin plate, anti-His-HRP detection; Site 2; sample in 0.5 M urea, 0.2 M L-arginine pH 9.5
[2] = target: T1, Biotin-… (epitope sequence from …); test: ELISA, biotinylated peptide on streptavidin plate, anti-His-HRP detection; Site 1; sample in 0.5 M urea, 0.2 M L-arginine pH 9.5
[3] = target: T1, Biotin-… (epitope sequence from …); test: ELISA, biotinylated peptide on streptavidin plate, anti-His-HRP detection; Site 1; sample in 50 mM Tris, 1 M sucrose, ~0.2% Tween20, 3 mM DTT, pH 3.0
[4] = target: T1, Biotin-… (epitope sequence from …); test: ELISA, biotinylated peptide on streptavidin plate, anti-His-HRP detection; Site 2; sample in 50 mM Tris, 1 M sucrose, ~0.2% Tween20, 3 mM DTT, pH 3.0
[5] = target: T1, Biotin-… (epitope sequence from …); test: ELISA, biotinylated peptide on streptavidin plate, anti-His-HRP detection; Site 1; sample in 50 mM Tris, 3 mM DTT, pH 9.0
[6] = target: T1, Biotin-… (epitope sequence from …); test: ELISA, biotinylated peptide on streptavidin plate, anti-His-HRP detection; Site 2; sample in 50 mM Tris, 3 mM DTT, pH 9.0
[7] = target: T1, Biotin-… (epitope sequence from …); test: ELISA, biotinylated peptide on streptavidin plate, anti-His-HRP detection; Site 1; sample in 50 mM Tris, pH 9.0
[8] = target: T1, Biotin-… (epitope sequence from …); test: ELISA, biotinylated peptide on streptavidin plate, anti-His-HRP detection; Site 2; sample in 50 mM Tris, pH 9.0

ELISA activity [%] compared with the reference standard [1]: 78% | ELISA activity [%] compared with the reference standard [2]: 90% | ELISA activity [%] compared with the reference standard [3]: 135% | ELISA activity [%] compared with the reference standard [4]: 130% | ELISA activity [%] compared with the reference standard [5]: 85% | ELISA activity [%] compared with the reference standard [6]: 131% | ELISA activity [%] compared with the reference standard [7]: 71% | ELISA activity [%] compared with the reference standard [8]: 95%
B1: MYC123 ("wild type" Mycograb) scFv peptide (scFv)
scFv: MAEVQLVESGAEVKKPGESLRISCKGSGCIISSYWISWVRQMPGKGLEWMGKIDPGDSYINYSPSFQGHVTISADKSINTAYLQWNSLKASDTAMYYCARGGRDFGDSFDYWGQGTLVTVSSGGGGSGGGGSGGGGSDVVMTQSPSFLSAFVGDRITITCRASSGISRYLAWYQQAPGKAPKLLIYAASTLQTGVPSRFSGSGSGTEFTLTINSLQPEDFATYYCQHLNSYPLTFGGGTKVDIKRAAALEHHHHHH
